experiment: yeast display, Sf9 membrane polyspecificity reagent, FACS + sequencing; frameworks hold sequencing errors
In short: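 Synthetic nanobody libraries on Saccharomyces cerevisiae BJ5465 were galactose-induced for 36–48 hours, stained 1 hour at 4 °C with 10% biotinylated, detergent-solubilized Sf9 membrane reagent and enriched on streptavidin microbeads. FACS then separated cells into low and high (top ~1%) gates by anti-HA (expression) and streptavidin (reagent binding) fluorescence. Genes were colony-PCR amplified, MiSeq 2 × 250 sequenced and CDR-length filtered. A clone's polyreactivity label is that of its gate of origin.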

Sequence | polyreactivity (PSR sort gate)
QVQLVESGGCLVQAGGSLRLSCAASGRIFFYYTLGWYRQAPGKERELVAAINSTGSTNYADSVKGRFTISRDNAKNTVYLQMKSLKPEDTAVYYCNAGTRYIFLYPPFLGAAFDYWGQGTQVTVSS | low polyreactivity
QVQLVESGGGLVQAGGSLRLSCAASGLTFNVYAMGWYRQAPGKERELVASITKRGGSTYYADSVKGRFTISRDNAKNTVYLQMNSLKPEDTAVYYCAADGLTGSIYRATGYYWGQGTQVTVSS | high polyreactivity
QVQLVESGGGLVQAGGSLRLTCAASGRILTCYAMGWYRQEPGKERELVASINWRGGSTYYADSVKGRFTISRDNAKNTVYLQMNSLKPEDTAGYYCARYKYTRQTRVEYGYWGQGTQVTVSS | high polyreactivity
QVQLVESGGGLVQAGGSLRLSCAASGFTFYRYAMGWYRQAPGKERELVAAITRTGGSTYYADSVKGRFTISRDNAKNTVYLQMNSLKPEDTAVYYCAARVHGTGTLKYPNYYWGQGTQVTVSS | high polyreactivity
QVQLVESGGGLVQAGGSLRLSCAASGRISVFYAMGWYRQAPGKERELVAAITRSGTTKYADSVKGRFTISRDNAKNTVYLQMNSLKPEDTAVYYCAADSSRFFYGVYNYRQYGYWGQGSQVTVSS | high polyreactivity
QVQSVESGGGLVQAGGSLRLSCAASGRTFSIYGMGWYRQAPGKERELVAAISWRSGSTYYADSVKGRFTISRDNAKNTVYLKMNSLKPEDTAVYYCAKRYILGYKPYSYWGQGTQVTVSS | high polyreactivity
QVQLVESGGGLVQAGGSLRLSCAATGSTFYHYAMGWYRQAPGKEREFVAAISTSGGRTYYADSVKGRFTISRDNAKNTVYLQMNSLKPEDTAVYYCAARPGSWYPSVPSYNYWGQGTQVTVSS | low polyreactivity
QVQLVESWGGLVQAGGSLRLSCAASGSTFFSYAMGWYRQAPGKERELVAGIEWNGGDTNYADSVKGRFTISRDNAKNTVYLQMNSRKPVDTAVYYCATDYSYPGPFRRRERFDYWGQGTQVTVSS | low polyreactivity
QVQLVESGGGLVQAGGSLRLSCAASGVNAMGWYRQAPGKEREFVAAITSIGGSTYYADSVKGRFTISRDNAKNTVYLQMNSLKPEDTAVYYCNTDRGPVKVSPLYESWGQGTQVTVSS | low polyreactivity
QVQLEESGGGLVQAGGRLRLSCAASGFIFWGNAMGWYRQAPGKERELVAGIRSLGGTTSYEDSVKGRFTISRDNAKNSVYLQINSLKPEDTAVYSCAAGYVAEFDYWGQVTQVTVSS | low polyreactivity
QVQLVESGGGLVQAGGSLRLSCAASGSTFANYAMGWYRQAPGKERELVAGISWRGGRTYYADSVKGRFTISRDNAKNTVYLQMNSLKPEDTAVYYCAAEVLKTRWSYDYWGQGTQVTVSS | high polyreactivity
QVQLVESGGGLVQAGGSLRLSCAASGFIFGINAMGWYRQAPGKEREFVATITSGGGTNYADSVKGLFTISRDNAKNTVYLQMHSLKPEDTAVYYGAAEEDYIYFYVSMDYWGQGTQVTVSS | low polyreactivity
QVQLVESGGGLVQAGGSLRLSCAASGSIFSHNAMGWYRQAPGKERELVASMTGSGGSTYYADSVKGRFTISRDNAKNTVYLHMNSLKPEDTAVYYCAADSYGRSETEDDYWGQGTQVTVSS | low polyreactivity
QVQLVESGGGLVQAGGSLRLSCAASGRIFRVNSMGWYRQAPGKEREFVAAITKNGGSTYYADSVKGRFTISLDNANNTVYLQMNSLKPEDTAVYYCAVRAWDPYTGKCVYWGQGTQVTVSW | low polyreactivity
QVQLVESGGGLVQAGGSLRLSCAASGFIFDDNAMGWSRQAPGKDWELVAASTSGGGSTYYADSVKGRFTISRDNAKNTVYLQMTSLKPEDTAVYYCYAVPSQPDEFDYWGQGTQATVSS | low polyreactivity
QVQLVESGGGLVQAGGSLRLSCSASGLIFWAYAMGWYRQAPGKERELVAAINWRGGSTYYADSVKGRFTISRDNAKNTVYLQMNSLKPEDTAVYYCNTDFQLGEGGSYGYDYWGQGTQVTVSS | low polyreactivity
QVQLVESGGGLVQAGGSLRLSCAASGGIFRYYALGWYRPAPGKERELVAASSRSGDSTYYADSVKGRFTISRDNAKNTVYLQMNSLKPEDTAVYYCAKDNDDVHLVHLDYNSDRYGYWGPGTQVTVSS | high polyreactivity
QVQLVESGGGLVQAGGSLRLSCAASGRTLKYNAMGWYIQAPGKERELVAGISWSGTRTYYADSVKGRFTISRDIAKNTVYLQMNSLKPEETAVYYCAAYSYLYRSSGFRYNYWGQGTPVTVSS | high polyreactivity
QVQLVESGGGLVQAGGSLRLSCAASGRIFYKYAMGWYRQAPGKERELVAAISYSGGSTYYADSMKGRFTLSRDNAKNTVYLQMNSLTPEDTAVYYCATRRREAGIEYDYWGQGTQVTVSS | high polyreactivity
QVQLVESGGGLVQAGGSLRLSCAASGNIFTYNAMGWYRQAPGKERELVAAISWTADSTYYADSVKGRFTISRDNAKNTVYLQMNSLKPEDTAVYYFAADSQYADYGYWGQGTQVTVSS | high polyreactivity
QVQLVESGGGLVQAGGSLRLSCAASGRISTYNAMGWYIQAPGKERELVASITGGGSTNYADSVKGRFTISRDNAKNTVYLQMNSLKPEDTAVYYCNAKARGQRGYRKIYGYDYWGQGTQVTVSS | high polyreactivity
QVQLVESGGGLVQAGGSLRLSCAASGSIFAVYAMGWYRQAPGKERELVASISRTGTTNYADSVKGRFTISRDNAKNTVYLQMNSLKPEDTAVYYCNADAYLYYKYHWGFTFYQYEYWGQGTQVTVSS | low polyreactivity

Sequence | polyreactivity (PSR sort gate)
QDQLVDSGVGLVQAGGSLRLSCAASGLIFGRNVMGWYRQAPGKERELVAAISWSGGRTYYADSVKGRFTISRDNAKNTVYLQMNSLKPEDTAVDYCATDRSTRTYRSPYDYWGQGTQVTVSS | high polyreactivity
QVHLVESGGGLVQAGGSLRLSSAPSGSILLINAMGWYRQAPGKERELVAAIRTGGSTYYADSVKGRFTISRDNAKNTVYLQMNSLKPEDTAVYYCNVDYDVQPGGEFDYWGQGTQVTVSS | low polyreactivity
QDQLVESGGGLVQAGGSLRLSCAASGFIFENYTLGWYRLAPGKERELVAAITSSGGSTYYADSVKGRFTISRDNAKNTVYLPLNSLNPDVTAVYYCNKRWFRDYDYWGQGTQVTVSS | high polyreactivity
QVQLVESGGRLVQAGASLRLSCAASASIFASNAMGWYRHEPGKERELVAAINSGDSTNYADSVKGRFTISRDNAKNTVYLQMNSLKPEDTAVYYCARGLEERYDYWGQGTQVTVSS | low polyreactivity
QVQIVESGGVLVQPGGILRLSCAASGFTFDAYDMGWYRQAPGKERELVAANSWRGIDTTYADSVKWRFTISRDNAKNPVFLQMNSLKPEDTAVYYCAEFVSDATVGTSKGLDYWGQGTQVTVSS | low polyreactivity
QFQLVESGGGFVQAGGSLRLSGASSGIIFLANAMVWYRQSPGKEREFVAAISRSGSRTYDADSVKGRFTISRDHAKNSVYLQMNSVKPEDTAVYYCAAESPVLYYWGQGTQVTVSS | high polyreactivity
QVQLVESGGGLVQAGGSLRLSCAASGSIFPKYAMGWYRQAPGKERELVATISYRGGRTYYADSVKGRFTISRDNAKNTVYLQMNSLKPEDTAVYYCAGADYGSYPTYGYFEYYYWGQGTQVTVSS | low polyreactivity
QVQLVESGGGLVQAGGSLRLSCAASGITFIVNTMGWYRQAPGKEREFVATISANSDGTYYADSVKGRFTISRDNAKNTVYLQMNSLKPEDTAVYYWGQGTQVTVSS | low polyreactivity
QVQLVESGGGLVQAGGSLRLSCAASGSIIPPNAMGWYRQAPGKERELVAGISSGGSTTYADSVKGRFTISRDNAKNTVYLQMNSLKPEDTAVYYCAADVPYGASIISYDYWGQGTQVTVSS | low polyreactivity
QVQLVESGGGLVQAGGSLRLSCAASGFTFIRYAMGWYRQAPGKERELVAAIRGTGTSTYYADSVKGRFTISRDNAKNTVYLQMNSLKPEDTAVYYCNKVAGRSPYTRYDYWGQGTQVTVSS | low polyreactivity
QVQLVESGGGLVQAGGSLRLSCAASGFTFGSYAMGWYRQAPGKERELVAVITRSGRTNYADSVKGRFTISRDNAKNTVYLQMNSLKPEDTAVYYCNADDVDDEVSPDLTEMDYWGQGTQVTVSS | low polyreactivity
QVQLVESGGGLVQAGGSLRLSCAASGSIFGYYVMGWYRPAPGKERELVAAITRSGSTYYADSVKGRFTISRDNAKNTVYLQMNSLKPEDTAGYYCAADGSYYWYPHTTYDYWGQGTQVTVSS | low polyreactivity
QVQLVESGGGLVQAGGSLRLICAASGRIFYINAMGWYRQPPGKERELVAAITGGDGSTTYADSVKGRFTISRDNAKNTVYLQMNSLKPEDTAVYYCYADTARKYAESQFDHWGQGTQVTVSS | low polyreactivity
QVQHVESGGGLVQAGGSLRLSCASSGSTFRYNAMGWYRQAPVKERELVAAISSSGGSTYYADSVKGRFTISRDNAKNTVYLQMNSLKPEDPEVYYCAAPTRSRFKGYYYWGQGTQVTVSS | high polyreactivity
QVQLVESGGGLVQAGVSLRLSCAASGITLYRYAMGWYRQATGKERELVADISSGGGTTYYADSVKGRFTISRDNAKNTVYLQMNSLKPEDTAVYYCAADYGFRYPLYDYWGQGTQVTVSS | low polyreactivity
QVQLVESGGGLVQAGGSLRLSCAASGSTFSVNAMGWYRQAPGKEREFVAAIRWPGGSTYYADSVKGRFTFSRDKAKNTVYLQMNSLKPEDTAVYYCAARIKYRYDWGQGTQVTVSS | low polyreactivity
QVQLVESGGGLVQAGGSLPVSCAASGFTIVYYAKGWYRQAPGKERELVADISSEGSTYADSVKGRFTISRDNAKNTVSLQMNSLKPEDTAVYYCPAQPIYSYWRSSLYYYWGQGTQVTVSS | high polyreactivity
QVQLVESGGGLVQAGGSLRLSCAASGLTLTWNAMGWYRQAPGKERELVAAITGSGGRTNYADSVKGRFTISRDNAKNTVYLQMNSLKPEDTAVYYCASFRWYHWGTRYDYWGQGTQVTVSS | high polyreactivity
QVQLVESGGGLVQAGGSLRLSCAASGRTFVSYAMGWYRPAPGKERELVAGISWSGDSTYYADSVKGRFTISRDNAKNTVYLEMNSLKPEDSAVYYCAAYGPFIYGGHHYNYWGQGTQVTVSS | low polyreactivity
QVQLVESGGGLVQAGGSLRLSCAASGSIFPGYAMGWYRQAPGKERELVAGITWSDARTYYADSVKGRFTISRDNAKNTVYLQMNCLKPEDTAVYYCAADYYYYELDYWGKGTQVTVSS | low polyreactivity
QVQLVESGGGIVQAGGSLRLISAASGRTYKSYTIGWYRQAPGKEREFVAAISSRGGNTYYADSVKGRFTISRDNAKNTVYLQMNSLKPEDTAVYYCAARYGYSYDRRDYWGQGTQVTVSS | high polyreactivity

— the nanobody polyreactivity screen of Harvey et al. (2022)
